Measurements published in patent US20230074436A1 (DENALI THERAPEUTICS, published 2023).
No end group written: not given here. *: point of attachment. Biotin = O=C1N[C@H]2[C@H](CS[C@H]2CCCCC(=O)*)N1

Key:
asyn_113-127_124G [1] = target: T1, asyn_113-127_124G (human); test: Ala-scan peptide ELISA, row D, run 1
T1 construct: substitution is already in the entry; also called pep13
T1 peptide: Biotin-LEDMPVDPDNEGYEM
Description: (§1) 96-well Nunc plates were coated with 50 μL per well of 1 μg/mL streptavidin (from Jackson Immuno Research Laboratory) in PBS at 4° C. overnight. The plates were washed three times with PBST, and blocked with PBS containing 3% BSA at room temperature for 1 hour. The N-terminal biotinylated peptides were dissolved in Milli Q water to a concentration of 2 mg/mL, then further diluted to a concentration of 2 μg/mL with PBS. 50 μl of the diluted peptide was applied to the streptavidin-coated plates and incubated at 4° C. overnight. 2 μg/mL of biotinylated human alpha-synuclein was used as the positive control. The plates were washed three times with PBST before use. Purified antibody was diluted by serial dilution methods, from 20 μg/mL to 1 ng/mL, and 50 μL of the antibody solution was added to the peptide-coated wells. The plates were incubated for 1 hour at room temperature, then washed three times with PBST. Secondary detection antibody (goat anti-rat HRP (obtained from Southern Biotech)) was added with 1:5,000 dilutions and incubated for 1 hour at room temperature, then washed three times with PBST. Plates were developed with 50 μL/well of TMB substrate (Thermo Fisher) and quenched with 50 μL/well of 1 N sulfuric acid. The signal was quantified on a BioTek® plate reader at A450. A parallel repeat was performed for each peptide in a separate plate.

asyn_113-127_114A [2] = target: T2, asyn_113-127_114A (human); test: Ala-scan peptide ELISA, row D, run 1
T2 construct: substitution is already in the entry; also called pep3
T2 peptide: Biotin-LADMPVDPDNEAYEM
Description: as §1

asyn_113-127_123A [3] = target: T3, asyn_113-127_123A (human); test: Ala-scan peptide ELISA, row D, run 1
T3 construct: substitution is already in the entry; also called pep12
T3 peptide: Biotin-LEDMPVDPDNAAYEM
Description: as §1

asyn_113-127_115A [4] = target: T4, asyn_113-127_115A (human); test: Ala-scan peptide ELISA, row D, run 1
T4 construct: substitution is already in the entry; also called pep4
T4 peptide: Biotin-LEAMPVDPDNEAYEM
Description: as §1

asyn_113-127_113A [5] = target: T5, asyn_113-127_113A (human); test: Ala-scan peptide ELISA, row D, run 1
T5 construct: substitution is already in the entry; also called pep2
T5 peptide: Biotin-AEDMPVDPDNEAYEM
Description: as §1

asyn_113-127_127A [6] = target: T6, asyn_113-127_127A (human); test: Ala-scan peptide ELISA, row D, run 1
T6 construct: substitution is already in the entry; also called pep17
T6 peptide: Biotin-LEDMPVDPDNEAYEA
Description: as §1

asyn_113-127_124P [7] = target: T7, asyn_113-127_124P (human); test: Ala-scan peptide ELISA, row D, run 1
T7 construct: substitution is already in the entry; also called pep14
T7 peptide: Biotin-LEDMPVDPDNEPYEM
Description: as §1

asyn_113-127_116A [8] = target: T8, asyn_113-127_116A (human); test: Ala-scan peptide ELISA, row D, run 1
T8 construct: substitution is already in the entry; also called pep5
T8 peptide: Biotin-LEDAPVDPDNEAYEM
Description: as §1

asyn_113-127_120A [9] = target: T9, asyn_113-127_120A (human); test: Ala-scan peptide ELISA, row D, run 1
T9 construct: substitution is already in the entry; also called pep9
T9 peptide: Biotin-LEDMPVDADNEAYEM
Description: as §1

asyn_113-127_122A [10] = target: T10, asyn_113-127_122A (human); test: Ala-scan peptide ELISA, row D, run 1
T10 construct: substitution is already in the entry; also called pep11
T10 peptide: Biotin-LEDMPVDPDAEAYEM
Description: as §1

asyn_113-127_119A [11] = target: T11, asyn_113-127_119A (human); test: Ala-scan peptide ELISA, row D, run 1
T11 construct: substitution is already in the entry; also called pep8
T11 peptide: Biotin-LEDMPVAPDNEAYEM
Description: as §1

asyn_113-127_117A [12] = target: T12, asyn_113-127_117A (human); test: Ala-scan peptide ELISA, row D, run 1
T12 construct: substitution is already in the entry; also called pep6
T12 peptide: Biotin-LEDMAVDPDNEAYEM
Description: as §1

asyn_113-127_121A [13] = target: T13, asyn_113-127_121A (human); test: Ala-scan peptide ELISA, row D, run 1
T13 construct: substitution is already in the entry; also called pep10
T13 peptide: Biotin-LEDMPVDPANEAYEM
Description: as §1

asyn_113-127_118A [14] = target: T14, asyn_113-127_118A (human); test: Ala-scan peptide ELISA, row D, run 1
T14 construct: substitution is already in the entry; also called pep7
T14 peptide: Biotin-LEDMPADPDNEAYEM
Description: as §1

asyn_113-127_126A [15] = target: T15, asyn_113-127_126A (human); test: Ala-scan peptide ELISA, row D, run 1
T15 construct: substitution is already in the entry; also called pep16
T15 peptide: Biotin-LEDMPVDPDNEAYAM
Description: as §1

asyn_113-127_124G [16] = target: T1, asyn_113-127_124G; test: Ala-scan peptide ELISA, row B, run 1
Description: as §1

asyn_113-127_125A = target: T16, asyn_113-127_125A (human); test: Ala-scan peptide ELISA, row B, run 1
T16 construct: substitution is already in the entry; also called pep15
T16 peptide: Biotin-LEDMPVDPDNEAAEM
Description: as §1

asyn_113-127_114A [17] = target: T2, asyn_113-127_114A; test: Ala-scan peptide ELISA, row B, run 1
Description: as §1

asyn_113-127_123A [18] = target: T3, asyn_113-127_123A; test: Ala-scan peptide ELISA, row B, run 1
Description: as §1

asyn_113-127_115A [19] = target: T4, asyn_113-127_115A; test: Ala-scan peptide ELISA, row B, run 1
Description: as §1

[20] = target: biotinylated human alpha-synuclein (human, UniProt P37840 1-140); test: Ala-scan peptide ELISA, row B, run 1
Description: as §1

asyn_113-127_113A [21] = target: T5, asyn_113-127_113A; test: Ala-scan peptide ELISA, row B, run 1
Description: as §1

asyn_113-127_127A [22] = target: T6, asyn_113-127_127A; test: Ala-scan peptide ELISA, row B, run 1
Description: as §1

asyn_113-127 = target: T17, asyn_113-127 (human); test: Ala-scan peptide ELISA, row B, run 1
T17 construct: also called pep1
T17 peptide: Biotin-LEDMPVDPDNEAYEM
Description: as §1

asyn_113-127_124P [23] = target: T7, asyn_113-127_124P; test: Ala-scan peptide ELISA, row B, run 1
Description: as §1

asyn_113-127_116A [24] = target: T8, asyn_113-127_116A; test: Ala-scan peptide ELISA, row B, run 1
Description: as §1

asyn_113-127_120A [25] = target: T9, asyn_113-127_120A; test: Ala-scan peptide ELISA, row B, run 1
Description: as §1

asyn_113-127_122A [26] = target: T10, asyn_113-127_122A; test: Ala-scan peptide ELISA, row B, run 1
Description: as §1

asyn_113-127_119A [27] = target: T11, asyn_113-127_119A; test: Ala-scan peptide ELISA, row B, run 1
Description: as §1

asyn_113-127_117A [28] = target: T12, asyn_113-127_117A; test: Ala-scan peptide ELISA, row B, run 1
Description: as §1

asyn_113-127_121A [29] = target: T13, asyn_113-127_121A; test: Ala-scan peptide ELISA, row B, run 1
Description: as §1

asyn_113-127_118A [30] = target: T14, asyn_113-127_118A; test: Ala-scan peptide ELISA, row B, run 1
Description: as §1

asyn_113-127_126A [31] = target: T15, asyn_113-127_126A; test: Ala-scan peptide ELISA, row B, run 1
Description: as §1

asyn_113-127_118A [32] = target: T14, asyn_113-127_118A; test: Ala-scan peptide ELISA, row C, run 2
Description: as §1

asyn_113-127_126A [33] = target: T15, asyn_113-127_126A; test: Ala-scan peptide ELISA, row C, run 2
Description: as §1

[34] = target: alpha-synuclein phosphorylated at serine 129 (human, UniProt P37840 1-140); test: SPR (Biacore), antibody captured, p129-Syn injected
Description: Anti-mouse Fc antibody (obtained from GE Healthcare) was immobilized on the surface of a CM5 chip (obtained from GE Healthcare) through amine-coupling to reach about 6,000 to 8,000 response units (RU). The surface was activated by injection of a mixture of 1-ethyl-3-(3-dimethylaminopropyl)-carbodiimide (EDC) and N-hydroxysuccinimide (NETS), both obtained from GE Healthcare, for 7 minutes at room temperature. […] Both injections were done at room temperature.
Purified rat anti alpha-synuclein antibody (10 μg/mL) was injected at room temperature and captured to reach 1,000 to 2,000 RU. […] Sensorgrams were fitted using a 1:1 Langmuir model to estimate kₒₙ and koff.

B1: 20H4 (antibody, rat IgG2b, V domains shown)
VH: AVQLVESGGGLVQPKESLKISCAASGFTFSNAAMYWVRQAPGKGLELLARIRTKPNNYATYHADSVKGRFTISRDDSQSMVYLHMGNLKTEDTAMYYCTADMATGDYWGPGVMVTVSS
VL: DIQMTQSPPVLSVSVGDRVTLSCKASQNINKNLDWYQQKHGEAPKPLIYSTNNLQTGVPSRFSGSGSGTDYTLTISSLQPEDVATYYCYQYKSAWTFGGGTKLELR
notes: also called clone 20H4; rat 20H4
Question: For B1, which A450 (asyn_113-127_124G [1]) is on record?
Answer: The A450 was 0.336 OD.

Question: What about the A450 (asyn_113-127_114A [2]) of the same binder?
Answer: The A450 was 0.387 OD.

Question: What about the A450 (asyn_113-127_123A [3]) of the same binder?
Answer: The A450 was 0.43 OD.

Question: What about the A450 (asyn_113-127_115A [4]) of the same binder?
Answer: The A450 was 0.332 OD.

Question: What about the A450 (asyn_113-127_113A [5]) of the same binder?
Answer: Its A450 is 0.422 OD.

Question: And the A450 (asyn_113-127_127A [6])?
Answer: The A450 was 0.357 OD.

Question: What about the A450 (asyn_113-127_124P [7]) of the same binder?
Answer: The A450 was 0.044 OD.

Question: And the A450 (asyn_113-127_116A [8])?
Answer: Its A450 is 0.414 OD.

Question: And the A450 (asyn_113-127_120A [9])?
Answer: Its A450 is 0.277 OD.

Question: And the A450 (asyn_113-127_122A [10])?
Answer: The A450 was 0.051 OD.

Question: And the A450 (asyn_113-127_119A [11])?
Answer: The A450 was 0.051 OD.

Question: What about the A450 (asyn_113-127_117A [12]) of the same binder?
Answer: Its A450 is 0.431 OD.

Question: And the A450 (asyn_113-127_121A [13])?
Answer: The A450 was 0.358 OD.

Question: And the A450 (asyn_113-127_118A [14])?
Answer: Its A450 is 0.415 OD.

Question: And the A450 (asyn_113-127_126A [15])?
Answer: Its A450 is 0.375 OD.

Question: And the A450 (asyn_113-127_124G [16])?
Answer: Its A450 is 0.366 OD.

Question: And the A450 (asyn_113-127_125A)?
Answer: Its A450 is 0.049 OD.

Question: What about the A450 (asyn_113-127_114A [17]) of the same binder?
Answer: Its A450 is 0.471 OD.

Question: And the A450 (asyn_113-127_123A [18])?
Answer: Its A450 is 0.546 OD.

Question: And the A450 (asyn_113-127_115A [19])?
Answer: The A450 was 0.486 OD.

Question: What about the A450 [20] of the same binder?
Answer: Its A450 is 0.711 OD.

Question: And the A450 (asyn_113-127_113A [21])?
Answer: The A450 was 0.462 OD.

Question: And the A450 (asyn_113-127_127A [22])?
Answer: Its A450 is 0.333 OD.

Question: What about the A450 (asyn_113-127) of the same binder?
Answer: The A450 was 0.501 OD.

Question: And the A450 (asyn_113-127_124P [23])?
Answer: The A450 was 0.047 OD.

Question: What about the A450 (asyn_113-127_116A [24]) of the same binder?
Answer: The A450 was 0.501 OD.

Question: What about the A450 (asyn_113-127_120A [25]) of the same binder?
Answer: The A450 was 0.393 OD.

Question: And the A450 (asyn_113-127_122A [26])?
Answer: The A450 was 0.058 OD.

Question: And the A450 (asyn_113-127_119A [27])?
Answer: The A450 was 0.058 OD.

Question: And the A450 (asyn_113-127_117A [28])?
Answer: Its A450 is 0.527 OD.

Question: And the A450 (asyn_113-127_121A [29])?
Answer: Its A450 is 0.49 OD.

Question: What about the A450 (asyn_113-127_118A [30]) of the same binder?
Answer: Its A450 is 0.509 OD.

Question: And the A450 (asyn_113-127_126A [31])?
Answer: Its A450 is 0.35 OD.

Question: And the A450 (asyn_113-127_118A [32])?
Answer: The A450 was 0.44 OD.

Question: What about the A450 (asyn_113-127_126A [33]) of the same binder?
Answer: The A450 was 0.369 OD.

Question: And the Kd [34]?
Answer: The Kd was 6.14 nM.
